The record followed here is patent publication US20120316071A1 (published 2012).

Experiment [1] concerns the target T1, rHuman Erythropoietin R/Fc Chimera, CF (R&D Systems Cat#963-ER) (human, UniProt P19235 25-250).
T1 construct: Bought reagent; also called EPO R; EPO R/Fc; Fc part of the bought chimera not given
T1 sequence (looked up): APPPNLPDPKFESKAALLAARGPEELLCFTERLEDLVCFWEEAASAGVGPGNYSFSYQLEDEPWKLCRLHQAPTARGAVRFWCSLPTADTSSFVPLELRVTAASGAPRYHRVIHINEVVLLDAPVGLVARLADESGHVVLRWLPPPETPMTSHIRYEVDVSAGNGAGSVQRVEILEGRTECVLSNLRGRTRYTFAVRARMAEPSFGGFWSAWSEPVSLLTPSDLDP
The experiment is described as follows: ECL Multispot (MSD) assay, antigen spotted on plate, 10 nM Fab; blank spot of this row 472.

Experiment [2] has as its target T2, rHuman EGF R/Fc Chimera, CF (R&D Systems Cat#344-ER) (human, UniProt P00533 25-645).
T2 construct: Bought reagent; also called epidermal growth factor receptor; Fc part of the bought chimera not given
The description is as above.

Experiment [3] deals with T3, rHuman Notch-1/Fc Chimera, CF (R&D Systems Cat#3647-TK) (human, UniProt P46531 19-526).
T3 construct: Bought reagent; Fc part of the bought chimera not given
The description is as above.

In experiment [4] the target is T4, rHuman ErbB2/Fc Chimera, CF (R&D Systems Cat#1129-ER) (human, UniProt P04626 23-652).
T4 construct: Bought reagent; also called human epidermal growth factor 2 receptor; Fc part of the bought chimera not given
Described as above.

Experiment [5] deals with T5, rHuman CD44/Fc Chimera, CF (R&D Systems Cat#3660-CD) (human, UniProt P16070 21-220).
T5 construct: Bought reagent; Fc part of the bought chimera not given
The experiment is described as above.

The target in experiment [6] is T6, rHuman EGF R/Fc Chimera, CF (R&D Systems Cat#344-ER) (human, UniProt P00533 25-645).
T6 construct: Bought from R&D Systems; also called epidermal growth factor receptor (EGF R); not shown: Fc of the bought chimera
Kind of experiment: MSD multispot ECL, antigen spotted on plate, Fab 1410 nM; blank spot 709.

Experiment [7] concerns the target T7, rHuman HGF R/c-MET/Fc Chimera, CF (R&D Systems Cat#358-MT/CF) (human, UniProt P08581 25-932).
T7 construct: Bought from R&D Systems; also called HGF R/Fc; hepatocyte growth factor receptor (HGF R/c-Met); not shown: Fc of the bought chimera
Described as above.

Experiment [8] concerns the target T8, rHuman ErbB2/Fc Chimera, CF (R&D Systems Cat#1129-ER) (human, UniProt P04626 23-652).
T8 construct: Bought from R&D Systems; also called human epidermal growth factor 2 receptor (ErbB2); not shown: Fc of the bought chimera
Described as above.

The target of experiment [9] is T9, rHuman IGF-1 sR, (IGF-1 sR), CF (R&D Systems Cat#391-GR) (human, UniProt P08069 31-932).
T9 construct: Bought from R&D Systems and called a soluble receptor; also called insulin-like growth factor-1 soluble receptor
The description is as above.

Experiment [10] addresses T10, rHuman HGF R/c-MET/Fc Chimera, CF (R&D Systems Cat#358-MT/CF) (human, UniProt P08581 25-932).
T10 construct: Bought Fc chimera; also called HGF R/Fc; hepatocyte growth factor receptor; Fc part of the bought chimera not given
The experiment is described as follows: Multispot ECL (MSD) titration; antigen spotted on plate; Fab 98.1 nM; blank spot 210.

For experiment [11], the target named is T11, Recombinant Human DLL4 (R&D Systems Cat#1506-D4/CF) (human, UniProt Q9NR61 27-524).
T11 construct: Bought recombinant protein; also called delta-like protein 4; rHuman DLL4
The description is as above.

In experiment [12] the target is T12, rHuman P-Cadherin/Fc Chimera, CF (R&D Systems Cat#861-PC) (human, UniProt P22223 108-654).
T12 construct: Bought Fc chimera; Fc part of the bought chimera not given
The description is as above.

The target of experiment [13] is T13, rHuman IGF-1 sR (IGF-1 sR), CF (R&D Systems Cat#391-GR) (human, UniProt P08069 31-932).
T13 construct: Bought soluble receptor; also called insulin-like growth factor-1 soluble receptor
Described as above.

Experiment [14] concerns the target T14, rHuman CD44/Fc Chimera, CF (R&D Systems Cat#3660-CD) (human, UniProt P16070 21-220).
T14 construct: Bought Fc chimera; Fc part of the bought chimera not given
Described as above.

Experiment [15] concerns the target T15, rHuman Notch-1/Fc Chimera, CF (R&D Systems Cat#3647-TK) (human, UniProt P46531 19-526).
T15 construct: Bought Fc chimera; Fc part of the bought chimera not given
Described as above.

Experiment [16] concerns the target T16, rHuman Erythropoietin R/Fc Chimera, CF (R&D Systems Cat#963-ER) (human, UniProt P19235 25-250).
T16 construct: Bought Fc chimera; also called EPO R/Fc; EPO R; Fc part of the bought chimera not given
T16 sequence (looked up): T1 sequence (looked up)
The experiment is described as above.

The target in experiment [17] is T17, rHuman ErbB2/Fc Chimera, CF (R&D Systems Cat#1129-ER) (human, UniProt P04626 23-652).
T17 construct: Bought Fc chimera; also called human epidermal growth factor 2 receptor; Fc part of the bought chimera not given
Described as above.

B1: Fab VH1-46_IGHD6-6*01_IGHJ1*01 S102A/S103P/S104F (APF) & L6_IGKJ1*01 (Fab, V domains shown)
VH: QVQLVQSGAEVKKPGASVKVSCKASGYTFTSYYMHWVRQAPGQGLEWMGIINPSGGSTSYAQKFQGRVTMTRDTSTSTVYMELSSLRSEDTAVYYCAREEYAPFSAEYFQHWGQGTLVTVSS
VL: not shown
notes: Tested as a Fab made in E. coli; also called H:APF & L:wt; APF triple mutant
Regarding B1, the ECL signal was found to be 480 in [1]; 428 in experiment [2]; 299 in experiment [3]; 391 in experiment [4]; 400 in experiment [5].

B2: Fab VH1-46_IGHD3-10*01_IGHJ4*01 & B3_IGKJ1*01 (Fab, V domains shown)
VH: QVQLVQSGAEVKKPGASVKVSCKASGYTFTSYYMHWVRQAPGQGLEWMGIINPSGGSTSYAQKFQGRVTMTRDTSTSTVYMELSSLRSEDTAVYYCAREYYYGSGSYYNDYFDYWGQGTLVTVSS
VL: not shown
notes: Tested as a Fab made in E. coli; VH was cloned into Plasmid A (CH1 constant region, His6 and Flag tags); The kappa VL was cloned into Plasmid C (kappa CL)
On to B2, for which the ECL signal was determined as 1070 in experiment [6], 903 in [7], 932 in experiment [8] and 426 in [9].

B3: Fab VH1-46_IGHD3-10*01_IGHJ4*01 & O1_IGKJ1*01 (Fab, V domains shown)
VH: B2 VH
VL: DIVMTQTPLSLPVTPGEPASISCRSSQSLLDSDDGNTYLDWYLQKPGQSPQLLIYTLSYRASGVPDRFSGSGSGTDFTLKISRVEAEDVGVYYCMQRIEFPSWTFGQGTKVEIKR
notes: Germline library Fab expressed in E. coli; VH was cloned into Plasmid A (CH1 constant region, His6 and Flag tags); The kappa VL was cloned into Plasmid C (kappa CL)
Take B3: the ECL signal in experiment [10] was determined as 335; in experiment [11] it was 402; in experiment [12] it was 347; in [13], 309; in experiment [14], 265; in experiment [15], 313. Also, the ECL signal in experiment [16] was 5630; in experiment [17] it was 247.
